Assay results as given in the DeepSol protein solubility set.

test: soluble on expression in E. coli; label from the status in PepcDB or PDB records

| Sequence | soluble on expression in E. coli |
| --- | --- |
| MSLGSNKTIIINLNNLEHNLNLIKNKIGEKEIVATLKGDAYGHGLINIFKFLKSKNINYFGLSNIEDAKTLKKIDKNIKILMYIKVDKKEIKNLIKFELVPFVSDFEYLFLIEKECALQKNKIKVHLKIDIGMNRYGIKIDDALEIATYIQNSKFLELEGICSHLPSIENFKTTQKQIEQFLFFLETLKQKNIHPKFVHISNSGHIINYKLNPQFNMVRPGLILYGYCQSEGHHHHHH | not soluble |
| MSLGTLASLHLNSGDAHHKQRTVTILEFSSSLKLVYKPRSLKVDGVFNGLLAFLNDRTGEVIKDQYCPKVLQRDGYGYVEFVTHQSCQSLEEVSDFYERLGSLMSLSYVLNSSDFHFENIIAHGPYPVLIDLETIIHNTADSSEETSTAMDRAFRMLNDSVLSTGMLPSSIYYRDQPNMKGLNVGGVSKSEGQKTPFKVNQIANRNTDEMRIEKDHVTLSSQKNLPIFQSAAMESVHFLDQIQKGFTSMYQWIEKNKQEFKEQVRKFEGVPVRAVLRSTTRYTELLKSSYHPDLLRSALDREVLLNRLTVDSVMTPYLKEIIPLEVEDLLNGDVPYFYTLPEERALYQEASAINSTFFTTSIFHKIDQKIDKLGIEDHTQQMKILHMSMLASNANHYADVADLEGHHHHHH | not soluble |
| MSLGTMSTEATLLERCQSQCELCAASTPLSPFVVAPHALVTVDHAVMLCDTCKGQIENPETVDMNHWRCLNDSMWSQVQPVQVLAWRQLKRISETEGWARDLLDMMYLDEETAKWAEIGMDDDAEKPRDVNGVELKKGDDVTVIKDLPVKGSSMVIKQGTAVRGIALTEDPKHIQGKVNGQTMYIIAEYCRKKEGGSHHHHHH | soluble |
| MSLGTSYSEGVSSIHMVKGERGSNNLELTSESLSSTNDTIRRLQRDLLFLQNELRFEKFVRQQHLQNIGKLHREHILDMAVESERQKLLLTNKRYKAQIELLNSEIDKHRSESQAALNRRVKWENDFNNKIKALREEKKAWKSEESELKSSIESLISQLESIRNSQIDIAFSKNQLELKLQLYETKLKEYEQHLSCVNISKKQVSSSSDTSFGNTKMDSSMILSNSEAVSDEQERELIESEKHRMKLESENLHLQANIELLKKDLEAINVVYEAKIFDLEKRLSSEANAPELHNPVNLNYDAQLSKISEIKENYDELLTRYRELEGKFLESQAEVEELKNFQKPLVDTGSSIHSSPGLQEGHHHHHH | soluble |
| MSLHDLLMIDGLQYSNWSQDIFQQMQAGGLSAVHATIAYHENARETLSRLGEWNRRFETWPELIRPVRTASDIRLAHEEGRVGIFFGFQNCSPIEDDIALVEVFRQLGVFVMQLTYNNQSLLASGCYEREDNGISRFGRQVIAEMNRVGMLIDMSHSAERSTLEAIELSSRPVIISHANPASFHAAKRNKSDAVLRGIAESGGLLGFSTYPFHLKGASDCSLESFCDMVARTADLMGVEHIGIGTDLCQAQPLSVLEWMRNGRWSKDKDYGEGSRDNANWPAPLQWFRDSRDLRNIAQGLRARGFAEHDVGNIMGLNWLRLLETATTAQAEGHHHHHH | soluble |
| MSLHRFQYKAYRRSFAGTFANARESFAKREGLMIRLEDRDGRVGFGEVAPIVSFGSESFASAFSVAESLGEQVAFERVLPELAGYPCLRWACESALDMIAREGVWEELEKPWPICGLVADLGDLASVEEKLGMHYQCLKFKIGKKSLIEELKALDRVIELSEGKVQIRLDANGTLDMRTAIGWLERVAGLPVEFIEQPLPVGAEVEMRRLSADFPTLLALDESVDSVDDLKRWRDQQWPGLYVIKPSLSGSLLALGEELSGGAGDCVFSSSLETKIGESNAIGFAIRQSGHGRALGFGVERLFADRNVGLELGPFLQKGGLASSDDLESLWNLTEGHHHHHH | soluble |
| MSLICKRFALVGSGFIGQVHAASLARHEGSALTMVADAAPERAQALAARYGARAVTVSEAIHSDAIDAVLIASSTPSHAELLEAAARAGKAVYCEKPIDLSLARAREVVERVLPLNVPVTVGFNRRFDSSHQQLRRQLEQGLIGRVELVQMVCRASSMPPLDYLRSSGGQMRDQAIHFFDLLRFLTGDEVRTVAAMGAALALPDIAEFGDVDTSILMMQMRGGALAQLDNTRRTGHGYDERITLLGAEGALESGSQSPAGPTLWRGNQRIEPGLWPDWFSRVQGSYYQHLDAFIRSLNGETVADLPGLLDGLQAQAIAEAAVQSLQHGQFVAVDDEGHHHHHH | soluble |
| MSLIDKTKLLQNFQFHLPTGYHKESLARLNFMKGKPLRDAAVLIGFVDRPEGLQVILTKRAEHLRHHPGQISFPGGKFEPEDIHLVNTALRETNEEVGIEDKHIHVFGQLPKLPTISQFNVTPFLAFISPDYKTHIDPNEVESVFEVPANHILNPNKLYSSKFELKRSSHRVFAIPYRQHFIWGMTAQIIESMQKHIISGEGHHHHHH | soluble |
| MSLIIPEKFQHIHRVMNTNIDGNRKVPYALTAIKGVGRRFAFVCCRKADVDVNKRAGELTEEDFDKIVTIMQNPSQYKIPNWFLNRQKDIKDGKTGQLLSTAVDNKLREDLERMKKIRLHRGLRHYWGLRVRGQHTKTTGRKGRTVGVSKKKGG | not soluble |
| MSLILRWGIIGPGWIAERFVHSLKTYSRQQVVAVASRSQAKADRVAAEWGIPQAYGQVEEMLARPDIDAVYIATPHNHHFPDGMQALKAGKHVLIEKPFALNLGEGRELQAEAARQEKLALEAMWCDYAPKYDVIRQLLEDGALGDLHTLLADHGEYFTRDHRIFNADLAGGPMMDLGSYVTSFALMVGGMPQEIVARGSATAEGLNGQTSMLFSWQNGMQGLLNTTLFSNTPGGAVVAGRQATLTIDGQFYAPGGFTLAASQGGQVLRWEEPRNRYDQLFWQAEHFAWCIGQGLQDSPLRPLSRVLQNLQVMDEVRRQVGAVFNEEREGHHHHHH | not soluble |
| MSLILVYSTFPNEEKALEIGRKLLEKRLIACFNAFEIRSGYWWKGEIVQDKEWAAIFKTTEEKEKELYEELRKLHPYETPAIFTLKVENVLTEYMNWLRESVLEGGSHHHHHH | soluble |
| MSLINTQRLVDHFLQLIQIDSESGNEKKIAETLAEQLGELGFTVHKLPVPAEVSNGFNLYARLEGTLNDSILFSCHMDTVKPGIGIEPVIEDGIIRSKGNTILGGDDKSGIAAILEAVRVLRDSQQAHKTIEIAFTVHEEGGLKGSEHFDMSKVQAEKAIVLDTGGPIGTIVRAAPGQQKIVALIKGKPAHAGLVPEDGISAIAVAADAITQMKLLRIDEETTANIGIVQGGQATNIVMPELKIVAEARSLNDAKLEAQVQHMIETFERAAEKHGATVEIESTRAYNAFKLEEDNAHIQAIKASFETIGIEPKTKLSGGGSDANNFNAKGLTTVNLSTGMAKVHTTEEYIAIADMVKIAEFVCAYTTA | not soluble |
| MSLIQTIENRLINGGELTLEEALLLASSADKEALYEAAHRITRYFMGDKFDTCSIINAKSGNCPEDCKWCAQSRHYAASIEKYGLLSAAVCAEQAAYNRRQGIGRFSLVASGRTASMNEIRQMAESYRAIKQRTDIKCCASLGLLSEEKLQILFDNGVTTYHCNMETAPSFFPSLCSTHTQDEKLATIRAARRVGMRVCSGGIIGMGETMEQRIEFAFYLHSINVYSIPINILQPIPGTPLERTLPLSEEEYLTTVALFRLINPRAFLRFSGGRAQLSPAVQRKAIYIGINAAITGDLLTTTGSKAAEDMQLVRECGFQVTNDTDWEVSYDHEGHHHHHH | not soluble |
| MSLIRCTDINEITPFSSFISKIPNHCGTHMDASRHFVKDGLSINELPIGYFCHKDVVLLEVPKGEAEGITKEDLEPYAAILAQVSFAFLCTGFEKYRTENPLIYQNEGPYIATSAGKYLSDNYPNLKGVGIWFPCTWFAVFSCTEGHHHHHH | not soluble |
| MSLKAAVYEGKKAIKMTELPTPKAGPNDVVIQNIYAGICGSDVAVYNHGSGTGHKIETDHEFGHEAVSKVVEVGDDVHDFKIGDRVYPYPLLARGDPSRAGSMGGFSEYILIPNAKLNRQLYLVPKEIDNHVAAMIEPFTVGTRAAKQTRPDKNDNAIVYGTGTIGMAAAVALKHLGVKQVMLVDLSDYRLNVAKELGFLTVNSSRDDVRSQAIEAFGKAEYSLHGEAPDTQIFLDAAGHNSILEDFLQFGPVGSRFVTVGVNNSKPQIDFLELIFGSKSVGGSGGYRPEDVQTVFEIMKERQSDLRKMVSQEFDWQDLEKGIQTATDTTISEKVLINYHEGHHHHHH | soluble |
| MSLKARSPYSPAEEDALFMDLPTGPRGQQAQPQRAEKNGMLPASYGPGEQNGTGGYQRAFPPRTNPEKHSQRKSNLAQVEHWARAQKGDSRSLPLDQTLPRQGPGQSLSFPENYQTLPKSTRHPSGGSSPPPRNLPSDYKYAQDRASHLKMSSEERRAHRDGTVWQLYEWQQRQQFRHGSPTAPICLGSPEFTDQGRSRSMLEVPRSISVPPSPSDIPPPGPPRVFPPRRPHTPAERVTVKPPDQRRSVDISLGDSPRRARGHAVKNSSHVDRRSMPSMGYMTHTVSAPSLHGKSADDTYLQLKKDLEYLDLKMTGRDLLKDRSLKPVKIAESDTDVKLSIFCEQDRVLQDLEDKIRALKENKDQLESVLEVLHRQMEQYRDQPQHLEKIAYQQKLLQEDLVHIRAELSRESTEMENAWNEYLKLENDVEQLKQTLQEQHRRAFFFQEKSQIQKDLWRIEDVTAGLSANKENFRILVESVKNPERKTVPLFPHEGHHHHHH | not soluble |
| MSLKAVTQCSQFFHEVSLPHLKPETTYYYRIPAANGTTESDILSFTTARAPGDKRSFTVAVLNDMGYTNAQGTHRQLLKAANEGAAFAWHGGDLSYADDWFSGILPCADDWPVCYNGTSTQLPGGGPIPEEYKQPLPQGETANQGGPQGGDMSVLYESNWDLWQQWMTNLTVKIPHMVMPGNHESACAEFDGPGNPITAYLNEGIPNGTWPAENLTYYSCPPSQRNFTAFQHRFHMPGKETGGVGNFWYSFDYGLAHFVSLDGETDFANSPFSTFERDLTGNETHPRPEETETTDSGPFGTIDGDRYDDNTAYAQYQWLKRDLASVDRTKTPWVFVMSHRPMYSSAYSSYQTNVRNAFENLLLQYGVDAYLSGHIHWYERMFPMTANGTIDESSIADNHTYTTNSGKSMTHIINGMAGNIESHSWFDEGEGLTEITAKLDRTHFGFSKLTVVNETVVNWEFVKGDDGSTGDWLTLVKGETCTINEGHHHHHH | not soluble |
| MSLKCETERSKTWNNFGNGIPCVLGIDEAGRGPVLGPMVYAAAISPLDQNVELKNLGVDDSKALNEAKREEIFNKMNEDEDIQQIIAYALRCLSPELISCSMLKRQKYSLNEVSHEAAITLIRDALACNVNVVEIKVDTVGPKATYQAKLEKLFPGISICVTEKADSLFPIVSAASIAAKVTRDSRLRNWQFREKNIKVPDAGYGSGYPGDPNTKKFLQLSVEPVFGFCSLVRSSWKTASTIVEKRCVPGSWEDDEEEGKSQSKRMTSWMVPKNETEVVPKRNVYFKERHMSNILTF | not soluble |
| MSLKDMIDSIEQFAQTQADFPVYDCLGERRTYGQLKRDSDSIAAFIDSLALLAKSPVLVFGAQTYDMLATFVALTKSGHAYIPVDVHSAPERILAIIEIAKPSLIIAIEEFPLTIEGISLVSLSEIESAKLAEMPYERTHSVKGDDNYYIIFTSGTTGQPKGVQISHDNLLSFTNWMIEDAAFDVPKQPQMLAQPPYSFDLSVMYWAPTLALGGTLFALPKELVADFKQLFTTIAQLPVGIWTSTPSFADMAMLSDDFCQAKMPALTHFYFDGEELTVSTARKLFERFPSAKIINAYGPTEATVALSAIEITREMVDNYTRLPIGYPKPDSPTYIIDEDGKELSSGEQGEIIVTGPAVSKGYLNNPEKTAEAFFTFKGQPAYHTGDIGSLTEDNILLYGGRLDFQIKYAGYRIELEDVSQQLNQSPMVASAVAVPRYNKEHKVQNLLAYIVVKDGVKERFDRELELTKAIKASVKDHMMSYMMPSKFLYRDSLPLTPNGKIDIKTLINEVNNREGHHHHHH | soluble |
